The values below come from patent publication US20230115257A1 (published 2023).

Substitutions are numbered along the chain they refer to. Several values for one entry are separate records, joined by “and”; a condition that tells them apart may be missing. Equal values may be shown once. Read-outs that look alike come from different tables or passages of the source.

Assay in all cases: ELISA
Assay [1] concerns the target T1, SARS-CoV-2 Beta (B.1.351) variant prefusion stabilized spike trimer protein (UniProt P0DTC2 14-1213).
Assay [2] deals with T1, SARS-CoV-2 Beta (B.1.351) variant …. The source holds these as a separate data set.
Assay [3] deals with T2, SARS-CoV-2 B.1.617.2 spike trimer variant (SARS-CoV-2 B.1.617.2 (Delta), UniProt P0DTC2 16-1213).
For assay [4], the target named is SARS-CoV-2 BA.2 spike trimer variant (SARS-CoV-2 Omicron BA.2, UniProt P0DTC2 16-1213).
The target of assay [5] is T2, SARS-CoV-2 B.1.617.2 spike trimer …. This is another data set of the same source.
The target is the same in assay [6]. This is another data set of the same source.
Assay [7] deals with SARS-CoV-2 B.1.1.529 spike trimer variant (SARS-CoV-2 B.1.1.529 (Omicron), UniProt P0DTC2 16-1213).

B1: 6-O12-A (antibody, V domains shown)
VH: QVQLQQPGTELVKPGASVKLSCKASGYTFTSYWMHWVKQRPGQGLEWIGNINPSNGGTNYNEKFRSKATLTVDKSSSTAYMQLSSLTSEDSAVYYCARLGWFLPLGSWGQGTTLTVSS
VL: QIVLTQSPAIMSASLGEVITLTCSASSSVSYMHWYQQKSGTSPKLLIYSTSNLASGVPSRFSGSGSGTFYSLTISSVEAEDAADYYCHQWSGYMYTFGGGTKLEIK
For orientation: IC50 means the concentration at which inhibition is half-maximal. Read a low IC50 as greater potency in that assay. For the molecule B1, the IC50 in assay [1] amounted to 7.76 nM.

B2: 9-M12-A (antibody, V domains shown)
VH: EVQLVESGGDLVKPGGSLKLSCTASGFTFSSYGMSWVRQTPDKRLEWVTTISSGGGYTYVPDSVKGRFTISRDNAKNTLYLHMSSLKSEDTAMYFCARPLIPTMVEAFDYWGQGTSLTVSS
VL: SIVMTQTPKFLPVSAGDRVTMTCKASQSVGNNVAWYQQKPGQSPKLLIYYASNRYTGVPDRFTGSGSGADFTFTISSVQVEDLAVYFCQQHYSSPFTFGTGTKLEIK
The EC50 is the concentration needed to bring the measured effect to its halfway point. Read a high EC50 as a less potent agent. Consider B2, for which the EC50 in assay [2] was 0.47 nM.

B3: 6-N1-A (antibody, V domains shown)
VH: EVQLQQSGPELVKPGASVKISCKASGYTFTDYYMNWVQQSHGKSLEWIGDINPNNGGIRYNQNFKGKATLTVEKSSSTAYMELRSLTSEDSAVYYCARRQVFYDGYYDYAMDYWGQGTSVTVSS
VL: DIVLTQSPASLAVSLGQRATISCRASQSVSTSSYSYMHWYQQKPGQPPKLLIKYASNLESGVPARFSGSGSGTDFTLNIHPVEEEDTATYFCQHNWEIPPTFGGGTKLEIK
In assay [2], B3 had an EC50 of 5.29 nM.

B4: 10-J24-A (antibody, V domains shown)
VH: EVQLVESGGGLVKPGGSLKLSCAASGFTFSSYAMSWVRQNPAKRLEWVATISGGGGFTYYPDSVKGRFTISRDNAKNTLYLQMNSLRSEDTAMYYCARDEDGKHDYFDYWGQGTTLTVSS
VL: DIVMTQSHKFMSTSVGDRVSITCKASQDVGTAVAWYQQKPGQSPKLLIYWASTRHTGVPDRFTGSGSGTDFTLTISNVQSEDLADYFCQQYASYPLTFGGGTKLVIK
In assay [2], B4 gave an EC50 of 1.47 nM.

B5: 4-C22-A (antibody, V domains shown)
VH: EVQLVESGGDLVKPGGSLKLSCAASGFTFSSFGMSWVRQTPDKRLEWVATISSGGGFTYYPDSVEGRFTISRDNAKNTLYLQMSSLKSEDTAMYYCARRLYDYDWFAYWGQGTLVTVSA
VL: B4 VL with F10I, G30V, Q38K, Y49H, A92S, G100A, V105E, I106L
In assay [2], B5 yielded an EC50 of 0.53 nM.

B6: 3-E2-A (antibody, V domains shown)
VH: EVQLQQSGPELVKPGASVKISCKASGYTFTDYYMNWVKQSHGKSLEWIGDINPNNGGTSYTQKFKGKATLTVDKSSSKAYMELRSLTSEDSAVYYCARRGDGHYGGFTYWGQGTLVTVSA
VL: not shown
With B6, the concentration for a half-maximal effect (EC50) in assay [3] was 0.547 nM and 0.085 µg/mL; in assay [4], 71.6 nM. For the same molecule, the IC50 is 9 µg/mL and 59.9 nM in assay [5]; 59.9 nM in assay [6].

B7: 6-C19-A (antibody, V domains shown)
VH: QIQLVQSGPELKKPGETVKISCKASGNTFTTAGMQWVQKMPGKGFKWIGWINTHSGEPKYAEDFKGRFAFSLETSASTAYLQISNLKNEDTATYFCARYGDYYYFDCWGQGTTLTVSS
VL: DIQMTQSPASLSASVGETVTITCRASGNIHNYLAWYQQKQGKSPQLLVYNAKTLADGVPSRFSGSGSGTQYSLKINSLQPEDFGSFYCQHFWTTPWSFGGGTKLEIK
With B7, in assay [2], the midpoint of the response, the EC50, lay at 1.53 nM.

B8: 4-K13-A (antibody, V domains shown)
VH: QAYLQQSGAELVRPGASVKMSCKASGYTFTSYTVHWVKQTPRQGLEWIGAIYPGNVDTSYNQNFKGKATLTVDKSSSTAYMQLSSLTSEDSAVYFCARDGYYAMDYWGQGTSVTVSS
VL: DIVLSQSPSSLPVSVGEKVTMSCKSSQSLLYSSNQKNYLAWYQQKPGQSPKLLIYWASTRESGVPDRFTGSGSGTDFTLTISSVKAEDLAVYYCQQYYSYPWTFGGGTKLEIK
Take B8: the EC50 in assay [3] is 29.3 nM and 4.54 µg/mL.

B9: 4-L4-A (antibody, V domains shown)
VH: B8 VH with A50G
VL: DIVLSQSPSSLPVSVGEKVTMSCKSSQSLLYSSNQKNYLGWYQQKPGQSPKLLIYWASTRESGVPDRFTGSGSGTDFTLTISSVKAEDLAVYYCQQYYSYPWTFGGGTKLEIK
In assay [1], B9 yielded a 50% inhibitory concentration (IC50) of 5.99 nM.

B10: 2-G20-A (antibody, V domains shown)
VH: EVQLQQSGPELVKPGASVKMSCKASGYTFPSYVLHWVKQKPGQGLEWIGYIYPYNDGTNYNEKFKGKATLTSDKSSSTAYMELSSLTSEDSAVYYCARGDYGDSAWFPYWGQGTLVTVSA
VL: DIVLTQSPASLAVSLGQRATISCRASKSVSTSGYSYMHWYQQKPGQPPKLLIYLASNLKSGVPARFSGGGSGTDFTLNIHPVEEEDAATYYCQLSRELPWTFGGGTKLEIK
In assay [1], B10 yielded an IC50 of 18.6 nM.

B11: 2-H7-A (antibody, V domains shown)
VH: QAYLQQSGAELVRPGASVKMSCKASGYTFTGYTMHWVKQTPRQGLEWIGAIYPENGDTSYNQKFKGKATLTVDKSSSTAYMQLSSLTSEDSAVYFCARDGYDVLYGMDYWGQGTSVTVSS
VL: B10 VL with K59E, G69S, L94H, E109D
Consider B11, for which, in assay [1], inhibition was half-maximal at 10.8 nM (IC50).

B12: 3-K11-A (antibody, V domains shown)
VH: EVQLQQSGPELVKPGASVKMSCKASGYTFTSYVMHWVKQKPGQGLEWIGYINPYNDGTEYNEKFKGKATLTSDKSSSTAYMELSSLTSEDSAVYHCAREAYRYFDVWGTGTTVTVSS
VL: DIQMTQSPASLSVSVGETVTITCRASENIYSNLAWYQQKQGKYPQLLVYGATNLADGVPSRFSGSGSGTQYFLKINSLQSEDFGSYYCQHFWGIPWTFGGGTKLEIK
Regarding B12, the EC50 came to 2.87 nM in assay [2] and 20.6 nM in assay [7].

B13: 4-A22-A (antibody, V domains shown)
VH: B12 VH with H95Y
VL: B12 VL with Y43S, G50A, D56E, F72S, I94T
In assay [2], B13 displayed an EC50 of 5.97 nM.

B14: 2-B16-B (antibody, V domains shown)
VH: EVQLQQSGAELVRPGSSVKMSCKTSGYTFTSYGINWVKQRPGQGLEWIGYIYIGNGYTAYNEKFKGKATLTSDTSSSTAYMQLSSLTSEDSAIYFCARDGTRDAMDYWGQGTSVTVSS
VL: B12 VL with V13A, Y43S, G50A, Y71F, F72S, S80P, W92Y, G93S, I94S
In assay [2], B14 had an EC50 of 0.27 nM.

B15: 1-B11-A (antibody, V domains shown)
VH: QVQLQQSGPELVKPGASVKISCKASGYTFTDHYINWVKQRPGQGLEWIGWIFPGSGSTYYNEQFKGKATLTVDKSSNTAYMLLSSLTSEDSAVYFCARSGGLRLGFAYWGQGTLVTVSA
VL: DIQMTQTTSSLSASLGDRVTISCRASQDISNYLNWYQQKPDGTVKLLIYYTSRLHSGVPSRFSGSGSGTDYSLTISNLEQEDISTYFCQQVNTLPYTFGGGTKLEIK
For B15, the EC50 is 0.12 µg/mL and 0.772 nM in assay [3]; 181 nM in assay [4]; 1.88 nM in assay [7].

B16: 1-L10-A (antibody, V domains shown)
VH: EVKLEESGGGLVQPGGSMKLSCVASGFTFNNYWMNWVRQSPEKGLEWVAQMRLKSDNYATHYAESVKGRFTISRDDSKSSVYLQMNNLRAEDTGIYYCIEGYWTYWGQGTLVTVSA
VL: QIVLTQSPAIMSASLGERVTMTCTASSSVSSSYLHWYQQKPGSSPKLWIYSTSNLASGVPARFSGNGSGTSYSLTISSMEAEDAATYYCLQYHRSPPYTFGGGTKLEIK
B16 returned an IC50 in assay [1] of 10.8 nM. That is a double-digit nanomolar value.

B17: 2-O15-A (antibody, V domains shown)
VH: QVQLQQSGAELVRPGASVKLSCKASGYTFTDCEMHWVKQTPVHGLEWIGVIDPETGDTAYNQKFKGKATLTADKSSSTAYMELRSLTSEDSAVYYCTRRRDYGNPYWYFDVWGAGTTVTVSS
VL: EIVLTQSPALMAASPGEKVTITCSVSSSISSSNLHWYQQKSGTSPKPWIYGTSNLASGVPVRFSGSGSGTSYSLTISSMEAEDAATYYCQQWTSYPYTFGSGTKLEIK
Turning to B17, in assay [2], the half-maximal effective concentration (EC50) came to 0.59 nM. This counts as sub-nanomolar.

B18: 9-G24-A (antibody, V domains shown)
VH: B17 VH with C32Y, G66D, T97A, T117A
VL: B17 VL with V25A, Y88V, T93S, S94N
On to B18, for which the EC50 in assay [2] stood at 0.56 nM.

B19: 2-B20-A (antibody, V domains shown)
VH: QIQLVQSGPELKKPGETVKISCKASGYTFTTYGMSWVKQAPGKGLKWMGWINTFSGLPTYADDFNGRFAFSLETSASTAYLQINNLKDEDTATYFCARVKVHDYDGDFYGMDYWGQGTSVTVSS
VL: DVVLTQTPLSLPVNIGDQASISCKSTKSLLNSDGFTYLDWYLQKPGQSPQLLIYLVSNRFSGVPDRFSGSGSGTDFTLKISRVEAEDLGVYYCFQSNYLPLTFGAGTKLELK
Regarding B19, a half-maximal effect in assay [2] (EC50) was put at 0.23 nM. Against the preceding molecule, the EC50 is about 2.4-fold lower.
